Test results as given in US20240270846A1 (published 2024).

Each binder was assayed against T1, CD3 epsilon homodimer protein (UniProt P07766 23-126) (assay: SPR Biacore T200, CD3e homodimer on chip, antibody analyte;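 further: CD3 epsilon homodimer amine-coupled on CM4 sensor chip, antibodies injected as analyte at 25 °C in HBS-EP+, ratio ≥0.8 taken as binding retained versus unaltered parent antibody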).
T1 construct: Construct of the homodimer is not described; also called CD3 (CD3 epsilon)
T1 sequence (P07766 23-126): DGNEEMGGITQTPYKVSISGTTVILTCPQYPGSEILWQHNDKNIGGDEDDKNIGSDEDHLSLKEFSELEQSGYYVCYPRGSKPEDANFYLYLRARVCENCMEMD

ratio of amounts bound (altered form/GLS3000)	Binder
1.32	GLS3000 S56F one-arm antibody (antibody, human IgG1, kappa, L234A L235A, N297A, name in Kabat numbering) light: DIVMTQSPLSLPVTPGEPASISCRSSQSLVHSNRNTYLHWYQQKPGQAPRLLIYKVSNRFFGVPDRFSGSGSGTDFTLKISRVEAEDVGVYYCGQGTQVPYTFGQGTKLEIKRTVAAPSVFIFPPSDEQLKSGTASVVCLLNNFYPREAKVQWKVDNALQSGNSQESVTEQDSKDSTYSLSSTLTLSKADYEKHKVYACEVTHQGLSSPVTKSFNRGEC heavy: QVQLVESGGGVVQPGRSLRLSCAASGFTFSNAWMHWVRQAPGKGLEWVAQIKAKSNNYATYYAESVKGRFTISRDDSKNSLYLQMNSLKTEDTAVYYCRYVHYGAYYGVDAWGQGTTVTVSSASTKGPSVFPLAPSSKSTSGGTAALGCLVKDYFPEPVTVSWNSGALTSGVHTFPAVLQSSGLYSLSSVVTVPSSSLGTQTYICNVNHKPSNTKVDKKVEPKSCDKTHTCPPCPAPEAAGGPSVFLFPPKPKDTLMISRTPEVTCVVVDVSHEDPEVKFNWYVDGVEVHNAKTKPREEQYASTYRVVSVLTVLHQDWLNGKEYKCKVSNKALPAPIEKTISKAKGQPREPQVYTLPPSRCELTKNQVSLSCAVKGFYPSDIAVEWESNGQPENNYKTTPPVLDSDGSFFLVSKLTVDKSRWQQGNVFSCSVMHEALHNHYTQKSLSLSPDYKDDDDK EPKSSDKTHTCPPCPAPELLGGPSVFLFPPKPKDTLMISRTPEVTCVVVDVSHEDPEVKFNWYVDGVEVHNAKTKPREEQYNSTYRVVSVLTVLHQDWLNGKEYKCKVSNKALPAPIEKTISKAKGQPREPQVCTLPPSRDELTKNQVSLWCLVKGFYPSDIAVEWESNGQPENNYKTTPPVLDSDGSFFLYSKLTVDKSRWQQGNVFSCSVMHEALHNRYTQKSLSLSP
0.92	GLS3000 S56G one-arm antibody (antibody, human IgG1, kappa, L234A L235A, N297A, name in Kabat numbering) light: DIVMTQSPLSLPVTPGEPASISCRSSQSLVHSNRNTYLHWYQQKPGQAPRLLIYKVSNRFGGVPDRFSGSGSGTDFTLKISRVEAEDVGVYYCGQGTQVPYTFGQGTKLEIKRTVAAPSVFIFPPSDEQLKSGTASVVCLLNNFYPREAKVQWKVDNALQSGNSQESVTEQDSKDSTYSLSSTLTLSKADYEKHKVYACEVTHQGLSSPVTKSFNRGEC heavy: QVQLVESGGGVVQPGRSLRLSCAASGFTFSNAWMHWVRQAPGKGLEWVAQIKAKSNNYATYYAESVKGRFTISRDDSKNSLYLQMNSLKTEDTAVYYCRYVHYGAYYGVDAWGQGTTVTVSSASTKGPSVFPLAPSSKSTSGGTAALGCLVKDYFPEPVTVSWNSGALTSGVHTFPAVLQSSGLYSLSSVVTVPSSSLGTQTYICNVNHKPSNTKVDKKVEPKSCDKTHTCPPCPAPEAAGGPSVFLFPPKPKDTLMISRTPEVTCVVVDVSHEDPEVKFNWYVDGVEVHNAKTKPREEQYASTYRVVSVLTVLHQDWLNGKEYKCKVSNKALPAPIEKTISKAKGQPREPQVYTLPPSRCELTKNQVSLSCAVKGFYPSDIAVEWESNGQPENNYKTTPPVLDSDGSFFLVSKLTVDKSRWQQGNVFSCSVMHEALHNHYTQKSLSLSPDYKDDDDK EPKSSDKTHTCPPCPAPELLGGPSVFLFPPKPKDTLMISRTPEVTCVVVDVSHEDPEVKFNWYVDGVEVHNAKTKPREEQYNSTYRVVSVLTVLHQDWLNGKEYKCKVSNKALPAPIEKTISKAKGQPREPQVCTLPPSRDELTKNQVSLWCLVKGFYPSDIAVEWESNGQPENNYKTTPPVLDSDGSFFLYSKLTVDKSRWQQGNVFSCSVMHEALHNRYTQKSLSLSP

Further lines, the binder ahead of its results:

Binder	ratio of amounts bound (altered form/GLS3000)
GLS3000 S52Y one-arm antibody (antibody, human IgG1, kappa, L234A L235A, N297A, name in Kabat numbering) light: DIVMTQSPLSLPVTPGEPASISCRSSQSLVHSNRNTYLHWYQQKPGQAPRLLIYKVYNRFSGVPDRFSGSGSGTDFTLKISRVEAEDVGVYYCGQGTQVPYTFGQGTKLEIKRTVAAPSVFIFPPSDEQLKSGTASVVCLLNNFYPREAKVQWKVDNALQSGNSQESVTEQDSKDSTYSLSSTLTLSKADYEKHKVYACEVTHQGLSSPVTKSFNRGEC heavy: QVQLVESGGGVVQPGRSLRLSCAASGFTFSNAWMHWVRQAPGKGLEWVAQIKAKSNNYATYYAESVKGRFTISRDDSKNSLYLQMNSLKTEDTAVYYCRYVHYGAYYGVDAWGQGTTVTVSSASTKGPSVFPLAPSSKSTSGGTAALGCLVKDYFPEPVTVSWNSGALTSGVHTFPAVLQSSGLYSLSSVVTVPSSSLGTQTYICNVNHKPSNTKVDKKVEPKSCDKTHTCPPCPAPEAAGGPSVFLFPPKPKDTLMISRTPEVTCVVVDVSHEDPEVKFNWYVDGVEVHNAKTKPREEQYASTYRVVSVLTVLHQDWLNGKEYKCKVSNKALPAPIEKTISKAKGQPREPQVYTLPPSRCELTKNQVSLSCAVKGFYPSDIAVEWESNGQPENNYKTTPPVLDSDGSFFLVSKLTVDKSRWQQGNVFSCSVMHEALHNHYTQKSLSLSPDYKDDDDK EPKSSDKTHTCPPCPAPELLGGPSVFLFPPKPKDTLMISRTPEVTCVVVDVSHEDPEVKFNWYVDGVEVHNAKTKPREEQYNSTYRVVSVLTVLHQDWLNGKEYKCKVSNKALPAPIEKTISKAKGQPREPQVCTLPPSRDELTKNQVSLWCLVKGFYPSDIAVEWESNGQPENNYKTTPPVLDSDGSFFLYSKLTVDKSRWQQGNVFSCSVMHEALHNRYTQKSLSLSP	1.12
GLS3000 S56E one-arm antibody (antibody, human IgG1, kappa, L234A L235A, N297A, name in Kabat numbering) light: DIVMTQSPLSLPVTPGEPASISCRSSQSLVHSNRNTYLHWYQQKPGQAPRLLIYKVSNRFEGVPDRFSGSGSGTDFTLKISRVEAEDVGVYYCGQGTQVPYTFGQGTKLEIKRTVAAPSVFIFPPSDEQLKSGTASVVCLLNNFYPREAKVQWKVDNALQSGNSQESVTEQDSKDSTYSLSSTLTLSKADYEKHKVYACEVTHQGLSSPVTKSFNRGEC heavy: QVQLVESGGGVVQPGRSLRLSCAASGFTFSNAWMHWVRQAPGKGLEWVAQIKAKSNNYATYYAESVKGRFTISRDDSKNSLYLQMNSLKTEDTAVYYCRYVHYGAYYGVDAWGQGTTVTVSSASTKGPSVFPLAPSSKSTSGGTAALGCLVKDYFPEPVTVSWNSGALTSGVHTFPAVLQSSGLYSLSSVVTVPSSSLGTQTYICNVNHKPSNTKVDKKVEPKSCDKTHTCPPCPAPEAAGGPSVFLFPPKPKDTLMISRTPEVTCVVVDVSHEDPEVKFNWYVDGVEVHNAKTKPREEQYASTYRVVSVLTVLHQDWLNGKEYKCKVSNKALPAPIEKTISKAKGQPREPQVYTLPPSRCELTKNQVSLSCAVKGFYPSDIAVEWESNGQPENNYKTTPPVLDSDGSFFLVSKLTVDKSRWQQGNVFSCSVMHEALHNHYTQKSLSLSPDYKDDDDK EPKSSDKTHTCPPCPAPELLGGPSVFLFPPKPKDTLMISRTPEVTCVVVDVSHEDPEVKFNWYVDGVEVHNAKTKPREEQYNSTYRVVSVLTVLHQDWLNGKEYKCKVSNKALPAPIEKTISKAKGQPREPQVCTLPPSRDELTKNQVSLWCLVKGFYPSDIAVEWESNGQPENNYKTTPPVLDSDGSFFLYSKLTVDKSRWQQGNVFSCSVMHEALHNRYTQKSLSLSP	0.71
